Data set [1] deals with IFNAR2 ECD (Homo sapiens) (UniProt P48551). The settings on record: cited from earlier work.
Data set [2] deals with the molecule itself. Nature of the data set: cross-linking; 5 µM IFN-β alone; 40 mM EDAC, 10 mM sulfo-NHS, 25 °C, 1.5 h; 10 mM HEPES, 150 mM NaCl, pH 7.4; SDS-PAGE, silver staining; whether CaCl2 was present is not told for this lane.
The target in data set [3] is T1, Human S100B protein (human), P04271.
T1 chain: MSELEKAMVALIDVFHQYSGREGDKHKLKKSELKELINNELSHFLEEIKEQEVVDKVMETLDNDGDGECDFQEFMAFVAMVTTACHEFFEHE
The data set can be described thus: SPR; S100B immobilised by amine coupling on ProteOn GLH chip (up to 9000 RU); analyte 10-80 nM IFN-β; 25 °C; 10 mM HEPES, 150 mM NaCl, 0.05% TWEEN 20, 1 mM CaCl2, pH 7.4; heterogeneous ligand model (two populations of ligand). The settings on record: remark: other sources report otherwise. In general terms: In SPR one partner is held on a chip, and binding of the other changes the refractive index at the surface.

Data set [4] addresses T2, Human interferon beta-1a (IFN-β, Rebif) (human), P01574.
T2 chain: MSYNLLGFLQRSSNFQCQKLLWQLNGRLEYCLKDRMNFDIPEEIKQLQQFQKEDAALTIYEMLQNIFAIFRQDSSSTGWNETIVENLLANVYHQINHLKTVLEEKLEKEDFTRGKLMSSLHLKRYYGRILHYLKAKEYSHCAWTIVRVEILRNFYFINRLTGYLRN
Nature of the data set: other fluorescence titration; tryptophan fluorescence of 0.5 µM IFN-β (excitation 295 nm) titrated by S100B; 25 °C; 10 mM HEPES-NaOH, 150 mM NaCl, 1 mM CaCl2, pH 7.4; one-site binding model; apparent. The following applies: remark: other sources report otherwise.

Data set [5] concerns the molecule itself. Nature of the data set: cross-linking; 5 µM IFN-β with 10 µM Ca2+-depleted S100B (1:2), and 10 µM apo-S100B alone; 40 mM EDAC, 10 mM sulfo-NHS, 25 °C, 1.5 h; 10 mM HEPES, 150 mM NaCl, pH 7.4, without CaCl2 and without chelator; authors say the samples could be contaminated by Ca2+.

Chain of IFNAR2 ECD (Homo sapiens) (P48551 27-243): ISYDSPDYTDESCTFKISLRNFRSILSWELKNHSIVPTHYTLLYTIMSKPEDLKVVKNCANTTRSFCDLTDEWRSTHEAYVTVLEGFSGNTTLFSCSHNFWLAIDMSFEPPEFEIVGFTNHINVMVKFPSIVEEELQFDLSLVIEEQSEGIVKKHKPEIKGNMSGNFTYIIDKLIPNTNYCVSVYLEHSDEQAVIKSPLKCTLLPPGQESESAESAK

Regarding IFN-β (from UniProt P01574), in data set [1], the Kd was 0.1 nM.

B1: Human interferon beta-1a (IFN-β, Rebif) (ligand, UniProt P01574 22-187, looked up)
chain: MSYNLLGFLQRSSNFQCQKLLWQLNGRLEYCLKDRMNFDIPEEIKQLQQFQKEDAALTIYEMLQNIFAIFRQDSSSTGWNETIVENLLANVYHQINHLKTVLEEKLEKEDFTRGKLMSSLHLKRYYGRILHYLKAKEYSHCAWTIVRVEILRNFYFINRLTGYLRN
notes: human interferon-β (interferon beta-1a), gene IFNB1, UniProt P01574; Drug product Rebif; also called Interferon-β; source: produced in CHO-K1 cells; bought: Merck (Rebif)
Consider B1, for which the binding result in data set [2] is recorded as “binds”. In data set [3], this molecule returned a Kd1 (ligand population 1 of the heterogeneous ligand model) of 47 pM; a Kd2 (ligand population 2 of the heterogeneous ligand model) of 87 nM; a kd1 (dissociation rate constant, ligand population 1 of the heterogeneous ligand model) of 0.000149 s⁻¹; a kd2 (dissociation rate constant, ligand population 2 of the heterogeneous ligand model) of 0.013 s⁻¹. In addition, in data set [3], the t1/2 of dissociation (fast process) was determined as 100 s and the t1/2 of dissociation (slow process) was over 1000 s.

B2: Human S100B protein (natural protein)
chain: MSELEKAMVALIDVFHQYSGREGDKHKLKKSELKELINNELSHFLEEIKEQEVVDKVMETLDNDGDGECDFQEFMAFVAMVTTACHEFFEHE
notes: human S100B, UniProt P04271; crystal structure of Ca2+-loaded human S100B dimer PDB 5D7F chains A and B; The authors take the S100B that was amine-coupled to the SPR chip to be partly converted to the monomer; also called apo-S100B; Ca^2+-loaded S100B
As for B2, in data set [4], the Kd amounted to 21 nM and the stoichiometry N (S100B to IFN-β molar ratio) is 1. Also, the “stoichiometry N” value in data set [5] was 2.

As a reminder, the stoichiometry N is the number of molecules, sites or subunits per partner or assembly.
